Measured values from US20230045015A1, “Use of Cobra neurotoxin polypeptide molecule in the treatment of nephropathy proteinuria” (priority 2019, published 2023).

Columns and labels:
[1] = molecular target: T1, nicotinic acetylcholine receptor (nAChR) (Rattus norvegicus, UniProt P25108+P25110); assay: 125I-αBtx-nAChR binding inhibition (affinity test of snake venom protein peaks); conditions: rat skeletal muscle nAChR extract; αBTX = 100%, BSA = 0%
T1 construct: rat skeletal muscle nAChR extract; from tissue; host or cells: rat skeletal muscle (extract)
From the text: The method was based on the affinity test between 12 protein peaks and nicotinic acetylcholine receptor (nAChR).
The Principle of Affinity Test
Because α-bungarotoxin has high affinity with the nicotinic acetylcholine receptor (nAChR), the cobra neurotoxin can compete with α-bungarotoxin for binding with nicotinic acetylcholine receptor, and only these α-bungarotoxin labeled with the radionuclide 125I and bound with the nicotinic acetylcholine receptor will be precipitated and be counted by the Gamma immunocount instrument whilst unbound α-bungarotoxin will be washed out. Therefore, 12 isolated proteins binding inhibition rate of α-bungarotoxin with nicotinic acetylcholine receptor (nAChR) could be used to measure the affinity between the isolated proteins and nicotinic acetylcholine receptor (nAChR), that's each isolated protein's bioactivity, which could be further determined by the γ counting value per second (Bq) measured by immune counter, and it becomes the index of proteins bioactivity.
The way of implementation include the method of binding inhibition rate of 125I radioactive labeling-α-bungarotoxin with nicotinic acetylcholine receptor (%) which reflects the activity of each protein.
The method for identifying cobra neurotoxin with high affinity with nicotinic acetylcholine receptor (nAChR) includes the following steps: […]

[2] = system: adriamycin induced rat nephritis proteinuria; assay: Adriamycin induced nephritis proteinuria in rats (unilateral nephrectomy + adriamycin); type: in vivo; conditions: urine, ELISA, adriamycin 3 + 2 mg/kg, 20 ug/kg by gavage once a day for 8 weeks
From the text: 1. Experimental Animals and Groups
80 male SD rats weighing 160-180 g were randomly divided into 2 groups: 20 in the control group and 60 in the model group. 40 rats in model group, after success in modeling, were randomly divided into cobra neurotoxin polypeptide treatment group and model group.
Each group of the three, namely control group, treatment group and model group were randomly divided into two groups again, with 10 rats in each group to test cobra neurotoxin peptide SEQ ID No. 1 and SEQ ID No. 2, the remaining rats were out of the groups.
Glomerulosclerotic rats were established by unilateral nephrectomy combined with tail vein injection of adriamycin twice every 2 weeks. Model. […] The control group was injected into caudal vein on the 4th and 18th day respectively with normal saline 0.5 ml.
During the 8 weeks of observation, the treatment group was given cobra neurotoxin polypeptide·20 ug/kg by gavage once a day, continuously for 8 weeks; the model group and the control group were perfused with normal saline once a day for 8 weeks.
3. Collection and Detection of Urinary Protein
After the last treatment, the rats were placed in the metabolic cage to collect 10 ml of urine, centrifuged at 3500 r/min for 10 min, the supernatant was extracted into the cryopreservation tube, stored in the refrigerator at −80° C. for standby, and the urinary A1 microglobulin was detected by enzyme-linked immunosorbent assay, β2-microglobulin, microalbumin, transferrin and immunoglobulin G (IgG), operate according to the instructions of ELISA kit.
Anesthetized rats were injected intraperitoneally with 1.5% Pentobarbital Sodium (50 mg/kg). After the corneal reflex disappeared, the abdominal cavity was opened and the abdominal aorta was exposed. The abdominal aorta collected 10 ml of whole blood and placed in a centrifuge tube. After standing for 2 h, centrifuged at 3500 r/min for 10 min. The supernatant was extracted in a cryopreservation tube and stored in a refrigerator at −80° C. for standby. The serum creatinine, urea nitrogen, cholesterol and triglyceride were detected by a full-automatic biochemical analyzer.

[3] = system: streptozotocin (STZ)-induced rat nephritis proteinuria; assay: Streptozotocin (STZ)-induced nephritis proteinuria in rats; type: in vivo; conditions: urine, ELISA, streptozotocin (STZ) 55 mg/kg, 20 ug/kg by gavage once a day for 8 weeks

T1 sequence (P25108 21-457): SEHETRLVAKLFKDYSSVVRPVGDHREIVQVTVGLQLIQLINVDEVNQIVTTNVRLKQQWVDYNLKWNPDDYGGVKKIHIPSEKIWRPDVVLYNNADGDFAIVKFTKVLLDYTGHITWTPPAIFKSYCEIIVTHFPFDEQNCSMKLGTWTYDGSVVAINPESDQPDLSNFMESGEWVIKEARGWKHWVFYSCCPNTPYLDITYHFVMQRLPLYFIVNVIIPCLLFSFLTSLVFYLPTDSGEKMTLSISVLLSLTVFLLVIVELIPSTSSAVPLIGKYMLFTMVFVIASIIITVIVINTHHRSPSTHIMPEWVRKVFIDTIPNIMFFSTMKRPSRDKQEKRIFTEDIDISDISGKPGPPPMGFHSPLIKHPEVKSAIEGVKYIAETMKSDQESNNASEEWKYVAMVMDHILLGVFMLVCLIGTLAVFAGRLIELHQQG
T1 sequence (P25109 24-501 partner): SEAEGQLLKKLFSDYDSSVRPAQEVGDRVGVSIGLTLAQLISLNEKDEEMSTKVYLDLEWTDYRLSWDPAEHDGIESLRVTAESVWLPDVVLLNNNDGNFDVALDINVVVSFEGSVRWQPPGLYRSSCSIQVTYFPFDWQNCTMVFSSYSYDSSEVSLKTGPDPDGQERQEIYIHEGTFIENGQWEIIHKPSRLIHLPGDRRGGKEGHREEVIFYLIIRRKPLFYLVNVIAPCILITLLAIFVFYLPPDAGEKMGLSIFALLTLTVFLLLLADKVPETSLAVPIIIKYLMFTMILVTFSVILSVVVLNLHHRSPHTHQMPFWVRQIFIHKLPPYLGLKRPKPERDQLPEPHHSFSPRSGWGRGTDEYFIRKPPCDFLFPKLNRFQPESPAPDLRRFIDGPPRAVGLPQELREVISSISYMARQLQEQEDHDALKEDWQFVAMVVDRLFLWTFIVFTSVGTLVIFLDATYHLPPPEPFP
T1 sequence (P25110 22-517): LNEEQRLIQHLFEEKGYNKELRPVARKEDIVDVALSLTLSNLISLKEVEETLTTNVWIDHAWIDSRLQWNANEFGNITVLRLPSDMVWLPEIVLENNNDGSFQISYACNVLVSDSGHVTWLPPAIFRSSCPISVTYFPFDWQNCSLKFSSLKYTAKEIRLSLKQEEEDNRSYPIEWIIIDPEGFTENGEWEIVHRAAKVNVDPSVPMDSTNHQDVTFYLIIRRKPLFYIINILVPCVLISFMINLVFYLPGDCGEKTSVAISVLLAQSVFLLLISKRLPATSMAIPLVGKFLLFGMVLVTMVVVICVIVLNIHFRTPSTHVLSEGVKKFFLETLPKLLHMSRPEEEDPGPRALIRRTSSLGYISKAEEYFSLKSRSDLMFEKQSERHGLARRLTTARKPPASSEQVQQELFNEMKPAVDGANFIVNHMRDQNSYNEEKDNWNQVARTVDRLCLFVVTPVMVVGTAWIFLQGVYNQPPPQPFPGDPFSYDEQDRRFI

B1: SEQ ID No. 1 (protein, listed as Naja atra)
chain: LECHNQQSSQTPTTTGCSGGETNCYKKRWRDHRGYRTERGCGCPSVKNGIEINCCTTDRCNN
- 125I-αBtx-nAChR binding inhibitory rate [1]: about 50%
- IgG ([2]; Table 1): 0.34 ± 0.08 µg/mL
- TRF ([2]; Table 1): 0.17 ± 0.08 µg/mL
- UALB ([2]; Table 1): 0.89 ± 0.11 µg/mL
- a1-MG ([2]; Table 1): 0.52 ± 0.8 µg/mL
- β2-MG ([2]; Table 1): 29.29 ± 6.93 ng/mL
- IgG ([3]; Table 3): 0.35 ± 0.11 µg/mL
- TRF ([3]; Table 3): 0.17 ± 0.05 µg/mL
- UALB ([3]; Table 3): 1.21 ± 0.14 µg/mL
- a1-MG ([3]; Table 3): 1.02 ± 0.21 µg/mL
- β2-MG ([3]; Table 3): 38.90 ± 11.82 ng/mL

B2: SEQ ID No. 2 (protein, listed as Naja atra)
chain: MKTLLLTLLVVTIVCLDLGYTLECHNQQSSQTPTTTGCSGGETNCYKKRWRDHRGYRTERGCGCPSVKNGIEINCCTTDRCNN
- IgG ([2]; Table 2): 0.31 ± 0.15 µg/mL
- TRF ([2]; Table 2): 0.11 ± 0.032 µg/mL
- UALB ([2]; Table 2): 0.82 ± 0.21 µg/mL
- a1-MG ([2]; Table 2): 0.74 ± 0.14 µg/mL
- IgG ([3]; Table 4): 0.31 ± 0.09 µg/mL
- TRF ([3]; Table 4): 0.18 ± 0.06 µg/mL
- UALB ([3]; Table 4): 0.89 ± 0.26 µg/mL
- a1-MG ([3]; Table 4): 0.96 ± 0.19 µg/mL
